Test results: the supplement of paper PMC12764529
± gives the half width of the 95% confidence interval.

Experiments:
[1] = folding stability dG unfold (combined trypsin and chymotrypsin); higher = more stable
Procedure, shortened: (§1)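 Designed mini-proteins (under 80 residues, no cysteine) in a PA-tagged cDNA display construct were digested with trypsin and chymotrypsin. Each protease was used at 11 concentrations (threefold dilutions) plus a no-protease condition, followed by sequencing. K50 was inferred by Bayesian fitting of sequencing counts, and unfolding free energy was derived against a sequence-predicted unfolded-state K50 and a shared folded-state K50, per protease or combined. Only designs with AlphaFold2 dimer inter-PAE above 15 were kept.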

[2] = folding stability dG unfold from chymotrypsin proteolysis; higher = more stable
Procedure, shortened: as §1

[3] = folding stability dG unfold from trypsin proteolysis; higher = more stable
Method: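 Folding stability of de novo designed mini-proteins (<80 aa, no Cys; designed by TrROS, TrMRF, ProteinMPNN and the joint model) was measured by cDNA display proteolysis with trypsin and chymotrypsin. Each protease was used at 11 concentrations in a threefold dilution series plus a no-protease condition. K50 was inferred by Bayesian fitting of sequencing counts, and dG unfold was derived against a sequence-predicted unfolded-state K50 (Tsuboyama et al. method). Sequences shown include variable-length N-terminal GS-type padding (SAGGSAGG...) inside a display construct carrying a PA tag. Rows were kept only if the AF2 dimer inter-PAE was >15, to exclude likely homo-oligomers.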

| Sequence | folding stability dG unfold [1] [kcal/mol] | folding stability dG unfold [2] [kcal/mol] | folding stability dG unfold [3] [kcal/mol] |
| --- | --- | --- | --- |
| AATTATVTLPFAPDDLDAAVEAARELASTLPPDSRITVAVPAPDGSTGTVTATVHPDGTIDVTVSPAAAPAS [r1_350_TrMRF] | 1.19 ± 0.1 | 1.47 ± 0.04 | 0.731 ± 0.019 |
| AELEAEVVSVEEVNGETVVVVRVDGELVVRTFRPPPPRPLSLEELKRLAEELREQNPELAEEAEKLLEALAS [r1_330_TrROS_Hall] | 2.33 ± 0.26 | 2.19 ± 0.11 | 2.49 ± 0.12 |
| AKLPEGAKVVIEVRRADDGETRTITLDDDVTITITYDKDTGKVEVRAYVFDKNGKLVAEETLTLSLEELLSS [r1_380_TrROS_Hall] | 3.1 ± 0.067 | 3.508 ± 0.017 | 1.77 ± 0.027 |
| APARPPDWVLVDVPVDPTSGLITVHAGDATVTVDLPDGRPAVFYFPRSVSPSDLLAWVVGKARELAEALRAS [r1_25_TrMRF] | 2.23 ± 0.16 | 2.32 ± 0.19 | 1.9 ± 0.085 |
| APKPPVLVVEVVVLFPKEDPEVRELTVEEIAELAAEELTAHPDFKPVKVEVLSAEEHPDGYYTVTLKVTHVS [r1_484_TrMRF] | 2.42 ± 0.1 | 2.4 ± 0.036 | 2.51 ± 0.15 |
| DLDITDPALVPVPERNYPFTVVSLTGPGNGAVTVELTLDGQTVSATVDPSTGTVTFTFPGTGASAVATADPS [r1_125_TrMRF] | 1.68 ± 0.12 | 1.61 ± 0.08 | 1.69 ± 0.087 |
| DYRVVIEDLELVPAPPGTRISMPAWVDHDGVRYGEVESYVDPETGTVTLRLLVEPDGEPRELTLTLPVPPES [r1_47_TrMRF] | 0.625 ± 0.061 | 0.629 ± 0.061 | 0.545 ± 0.034 |
| EEEVEELAKKLEEELRKKLRELFPEMSEEDIKIEEIEVEKTVTVEVNGEKKEIKVKVKIKMSEEVLERLKKS [r1_299_TrROS_Hall] | 1.72 ± 0.42 | 2.09 ± 0.33 | 1.98 ± 0.14 |
| EITIRNPNGMEVKKVEFDPPDSTIKFEFRMPDYYVKIEFQIYPVGGGWVIPIKIEIVPIPPTPAQRKKMQES [r1_154_TrROS] | 2.85 ± 0.25 | 3.4 ± 0.17 | 1.44 ± 0.13 |
| EVETYPDGTVVTTLPPEVTADIPADEPVNLRTLIFDPDGYLYLSTATRTPDGTVTYTVSITPIPVGPELLLS [r1_394_JUSTAS] | 1.54 ± 0.077 | 1.63 ± 0.083 | 1.44 ± 0.029 |
| GFDEAELKKLLEEKAAELEKKGYKVLKTSIEPVPDGTYGGKIGNKTITHPTPNGLTYSVSVYYEKVSPKKKS [r1_31_JUSTAS] | 0.351 ± 0.16 | 0.331 ± 0.25 | 0.232 ± 0.13 |
| GFVLIPFRLDDPDVTAGEIAEEVEKALPPEYGPLRLRVFFEDGSVLELEPGEKLGEHFEPDDEILVLVEGDS [r1_56_TrMRF] | 1.22 ± 0.14 | 1.37 ± 0.12 | 1.24 ± 0.042 |
| GLAPRVYEVDALVTDENGVPRLYRVLVVETPLPDGTYRAVAFARDLDTTETRVLTLVSDRAVIGPDVPLTAS [r1_14_TrMRF] | 2.21 ± 0.15 | 2.24 ± 0.12 | 2.07 ± 0.044 |
| GMAPKTYTKEVEIKDSSGKPIKYKVTVTETALPDGSSESTITLTDPNSSKTTTINLSSPGKGLTPDDKILLS [r1_14_JUSTAS] | 0.899 ± 0.075 | 1.09 ± 0.087 | 0.562 ± 0.019 |
| GMIVEIVESPEGTVTLYEVLLPGGTPILVGAADEEKLRERVAKELGVSFEKLKITKTTTLSPEELAALLAAS [r1_119_JUSTAS] | 1.66 ± 0.14 | 1.73 ± 0.053 | 1.4 ± 0.02 |
| GMSVTSYETDPNTGGPSISISSAPDPKTGLLSAPVTVYDPKTGQSKTINLTATSSEELAAKIAELLPASLLS [r1_156_JUSTAS] | 0.97 ± 0.098 | 0.166 ± 0.17 | 1.39 ± 0.024 |
| GMVEVTEERFEPETGKRIVTIRAPGRDLTVTFDPSTGIATFYDPSDGRTFTVPFTSLEEAVEAAKELALEES [r1_177_JUSTAS] | 4.47 ± 0.11 | 4.81 ± 0.11 | 3.1 ± 0.07 |
| GPMTVSTKTSTKTYFDPETGVETVVEPVTVTVTFPTSPTVTYTTTVTTTTKVERLPDGPLRTETTTTTTVSS [r1_296_JUSTAS] | 0.0169 ± 0.14 | -0.305 ± 0.38 | -0.135 ± 0.17 |
| GPPLPVEVDAEVDVVPLPGGPALVVRRPVRFPVTRRIVVVEVVRLPDGSVVARVDVYDPGDGRPRTFTLPLS [r1_261_TrMRF] | 1.9 ± 0.043 | 2.373 ± 0.021 | 0.795 ± 0.04 |
| GSEIKAGRARSSDGTGRIRVVLEREDGSSVEFELDLPGLPGDTFYLDLPESLPLKAKETWVYVDDKPYPVTS [r1_70_TrMRF] | 1.08 ± 0.067 | 1.25 ± 0.037 | 0.665 ± 0.054 |
| KVFSVDELRELAKKGKLKELLKKNKDVTIVVEEGSPEELKELKALPEVKEIKVVPKEDEEKIKKAKLVIKVS [r1_248_TrROS_Hall] | – | 0.0786 ± 0.69 | 0.312 ± 0.17 |
| MPTIRVKIYRDGKLVRELELPAEEVEKMSEEELLEKVRELLEEEKGETYKVEVEIDGKKFTFEIKLPEKEES [r1_477_TrROS_Hall] | – | 4.8 ± 0.24 | 4.33 ± 0.39 |

| Sequence | folding stability dG unfold [1] [kcal/mol] | folding stability dG unfold [2] [kcal/mol] | folding stability dG unfold [3] [kcal/mol] |
| --- | --- | --- | --- |
| SAGGMLTPEEIERLARELEEAIRRGDRERAEELLEKLEELLKQAEEEGDEELVERLKKLLERAKKALESAGG [r13_137_TrROS_Hall] | – | 2.99 ± 0.19 | 4.85 ± 0.55 |
| SAGGSAGGSAGEIDKIKVEVEFEFPVRVKVGDKEYEFLVKVKYTIGPDGKIEVKSIELFPSAGGSAGGSAGG [r11_95_TrMRF] | – | 4.76 ± 0.38 | 3.69 ± 0.24 |
| SAGGSAGGSAGGSFSVSVSYDPSTGNIVIRIDLPDGSTITITINPATGEISVSSSSSSSSAGGSAGGSAGGS [r10_127_TrMRF] | – | 3.83 ± 0.25 | 4.13 ± 0.28 |
| SAGGSMKTYKLESEEEIEKLIKELSPEKYIVGVKGNPDGTPVVYIFPKSEPEKLKKLGVKEIIPVKSAGGSA [r2_351_JUSTAS] | – | -0.109 ± 0.57 | -0.442 ± 0.46 |
| SAGKEIKIRIEVTRKVKNPETGEEVEEKEVVEITLSEEELKKGKSLEELAKELASKYPGAKVKIVEIESAGG [r19_110_TrROS_Hall] | – | 3.08 ± 0.49 | 4.43 ± 0.48 |
| SAGMTVEVEIELPPGMTEEERLEEVKALVEELARALLPPGWKVTVKEIEVEEKDGKLVVKVKIEIEPEESAG [r5_146_TrROS_Hall] | – | 2.99 ± 0.22 | 3.96 ± 0.28 |
| SAMKTTETITVTVEMEPEVAEEVAEEIAEKIEKEKNYEITEVKVSVFPTDGKYVVRVPIKITYPTPELKSAG [r14_219_JUSTAS] | < -1 | – | -0.771 ± 0.42 |
| SAMTTLEKEGDVTITRTKLPDGTVVVTTEVPESRPLAELTTETITIYPDGTVTTTSQTLTLDPATGRLGSAG [r14_724_JUSTAS] | -0.567 ± 0.23 | – | -0.146 ± 0.075 |
| SARPLTIMNPDGMMYRLDPDEGEIEFQNASDGEELKIKVKPKGNGVEIDIEFNGQPHEHKIPKGDWIMIPSA [r9_239_TrROS] | 0.157 ± 0.33 | – | 0.662 ± 0.088 |
| SASLENGGVKTVEDTEYDPATNTVTFKKVTTYYGDEVLSTSTATVPLPPKPLPPPPVVERDPTNPRYLESAG [r14_571_JUSTAS] | < -1 | – | -0.368 ± 0.91 |
| SDDLSTTVTVTTPGGPTLTLTFPSNASVSTSPIDENSIVITFPGYEAVVEIAPGGKPRLKEVSEKEPVDSSA [r9_773_JUSTAS] | < -1 | – | -0.534 ± 0.2 |
| SDTVHIPIDPNDPDEIKDLIKNLPPGWTVHIWWPDKNGEWPVVTIKVKPPPPPPIPPEDLPEEQRKEMKKSA [r9_1103_TrROS] | – | 0.718 ± 0.11 | 0.398 ± 0.24 |
| SEALILDPNVETVSPVFYLLLSPEEAEERARELREELRAELEAAGLPLPEDVVIEVVPAESEEELRALLESA [r9_204_JUSTAS] | 0.00109 ± 0.18 | – | 0.5 ± 0.049 |
| SGPDVPLTPEEVAARIKAELLEKHPIGEVTPVELREFPELGVVEVRLRINVKGPPGETREIDVRLSRERLSA [r9_1002_JUSTAS] | 0.0428 ± 0.21 | – | 0.694 ± 0.13 |
| SGSMTPLTVEREVDITVVETRFLPNGGEVKKRRVTVTTTVTLPGGVPVSTQTTTIESPDLSEEEILERLSSA [r9_371_JUSTAS] | -0.752 ± 0.15 | – | 0.357 ± 0.051 |
| SIEELAKKFPNVTVTVEKTEDGEVKITITVKTSEEQKKELQEKLKELAKKLAEELDLKVEIEIKVLPAPPSA [r9_1099_TrROS_Hall] | – | 3.7 ± 0.38 | 3.86 ± 0.26 |
| SKKWKVDLDIQEDPDNGTVIGMVRVESEDGEKRPPPEEIARELAEKLREKGYKVEAEPHPGWFMITVKPPSA [r9_510_TrROS] | 0.153 ± 0.48 | – | 0.371 ± 0.24 |
| SMPKVVKTVKITKSEAKEFLEKLDIGPDKSVTILETDPNGKSSLHTIGPNKILSSEPVDTLPNTWTIEISSA [r9_849_JUSTAS] | -0.416 ± 0.35 | – | -0.0776 ± 0.13 |
| SMPVTFTMKTPENRKKLEEAIKEIEEEYPIKVEEVEKDPKGTYTYKVEMDPEIIEKVKKKLEEAGNVTLESA [r9_472_JUSTAS] | -0.822 ± 0.97 | – | -0.343 ± 0.23 |
| SMVKAKVEVNPETNAAVVEFELPELKVIALRVFDENNEVHTLVEVEIPPGPRVPLAEIPLKPNEELVLPLSA [r9_1172_TrMRF] | -0.685 ± 0.76 | – | 0.0917 ± 0.26 |
| SSPGLVEVTIPLKIVLEPLAPDGTPAPRPVATVPIKTAASSEDPSAIEQAKEDVIKELKPEFPDAKFVVESA [r9_1112_JUSTAS] | < -1 | – | 0.223 ± 0.065 |
